The chains are these.
B1: S009-F7.53.2 (antibody, human IgG1, kappa, V domains shown)
VH: EVQLQQSGPELVKPGASVKIPCKTSGYTFTDYNMDWVKQSHGKSLEWIGDINPNTDGAIYNQKFQNKATLTVDKSSSTAYMELRSLTSEDTAVYYCTRRKLGRKFFDYWGQGTTLTVSS
VL: QIVLTQSPAIMSASPGEQVTMTCSASSSVGYMNWYQQKPGSSPRLLIYDTSNLASGVPVHFSGSGSGTSYSLTISRMEAAFAATYYCQQWYVYPYTFGGGTKLEIKR
notes: Human-murine chimeric antibody, human IgG1 heavy and kappa light constant regions
B2: S009-F7.30.5 (antibody, human IgG1, kappa, V domains shown)
VH: QVQLQQPKTELVKPGASVKLSCKASGYIFTTYWMHWVKQRPGQGLEWIGNVNPSNGGTMYNEKFERRATLTVDKSSSTADMQLSSLTSEDSAVYYCVPHYIGSRPGFAYWGQGTLVTVSG
VL: DIVMTQSQKFMSTSVGDRVSVTCKASQNVGTNVAWYQHKPGQSPKALLYSASYRYSGVPDRFTGSGSGTDFTLTITNVQSEDLAEYFCQQYNSYPLTFGGGTKLEIKR
notes: as for B1
B3: S009-F7.33.24 (antibody, human IgG1, kappa, V domains shown)
VH: B2 VH with K8G, I28T, T31S, T58S, M59N, E65K, R66N, R67K, S84N, V97A
VL: B2 VL with V33I, H38Q, L48I, L104V
notes: as for B1
B4: S009-F7.48.1 (antibody, human IgG1, kappa, V domains shown)
VH: QVQLQQPGTELVKPGASVKLSCKASGYTFTSYWMHWVKQRPGQGLEWIGNINPSNGGTNNNENFKSKATLTVDTSSSTAYMQLSSLTSEDSAVYYCVRNGYHGYWYFDVWGTGTTVTVSS
VL: B2 VL with H38Q, K39Q, L48I, G66V, T76S
notes: as for B1
B5: S009-F7.41.18 (antibody, human IgG1, kappa, V domains shown)
VH: QVQLQQPGTELVKPGASVKLSCKASDYTFTSYWMHWVKQRPGQGLEWIGSINPSNGDTYYNEKFKNKATLTVDKSSSTAYMQLSSLTSDDSAVYYCARGWYFDVWGTGTTVTVSS
VL: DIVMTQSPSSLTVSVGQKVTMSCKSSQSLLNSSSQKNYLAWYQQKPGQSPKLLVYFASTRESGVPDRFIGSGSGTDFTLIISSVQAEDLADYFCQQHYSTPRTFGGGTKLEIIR
notes: as for B1
B6: S009-F7.65.13 (antibody, human IgG1, kappa, V domains shown)
VH: EVQLQQSGPELVKPGTSVKILCKASGDTFTAYNMDWVKQRHGQSLEWIGDINPNTDSTIYNQKFEGKAILTVDKSSSTAYMELRSLTSEDTAVYYCARRKLGRGYFDYWGQGTTLTVSS
VL: QIVLTQSPAIMSASPGEKVTMTCSVNLSVRYIYWYQQKPGSSPRLLIHDTSNLASGVPVRFSGSGSGTSYSLTISRMEAEDAATYYCQQWSSFPYTFGGGTKLEIKR
notes: as for B1
B7: S009-F7.44.20 (antibody, human IgG1, kappa, V domains shown)
VH: EVQLQQSGPELVKPGASVKIPCKASGYTFTDYNMDWVKQSHGKSLEWIGDINPSTGGTIYNQKFNGKATLTEDKSASTVYMEFRSLTSDDTAVYYCARRRIGTGYFDVWGTGTTVTVSS
VL: QIVLTQSPALMSASPGEKVTLTCSASSSVISSYLSWYQQKPGSSPKLLIYRTSNLASGVPARFSGSGSGTSYSLTISSMEAEDAASYFCHQWSSFPYTFGGGTKLEIKR
notes: as for B1
B8: S009-F7.61.21 (antibody, human IgG1, kappa, V domains shown)
VH: DVQLQQSGPELVEPGASVRIPCKAAGHTFTDYNVDWVKQSHGQSLEWIGDVNPNTDGAIYNQKFEGKATLTVDTSSSTAYMELRSLTSEDTAVYFCARRRLGQGGFDSWGQGTTLTVSS
VL: B7 VL with I2V, L10I, S24G, V29L, S32K, S35Y, L48W, R51S, F95Y, L105V
notes: as for B1

Where a chain is given by its changes, count along the chain named.

The record followed here is patent US20250250357A1 (NANJING ZAIMING PHARMACEUTICAL, published 2025).

The first assay deals with T1, human MSLN-R2-his protein (human, UniProt Q13421 391-486).
T1 construct: it is put last here; also called human MSLN-R2 protein; hMSLN-R2-his; not shown: His tag
T1 sequence (Q13421 other isoform, or with tags, fused parts or gaps): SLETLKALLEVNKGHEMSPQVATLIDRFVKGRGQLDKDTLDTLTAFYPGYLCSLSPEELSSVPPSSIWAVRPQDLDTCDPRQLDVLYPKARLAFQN
As to the kind of experiment: ELISA on coated antigen, antibody 2 nM.
Molecule B1 came in with an OD450 of 0.05 OD.

As for B2, the OD450 amounted to 0.06 OD.

Turning to B3, the OD450 came out at 0.06 OD.

Molecule B4 showed an OD450 of 0.05 OD.

Consider B5, for which the OD450 came to 0.11 OD.

Turning to B6, the OD450 is 0.05 OD.

As to B7, the OD450 worked out at 0.05 OD.

For the molecule B8, the OD450 turned out to be 0.05 OD.

The target of a further assay is T2, human MSLN-R3-his protein (human, UniProt Q13421 487-598).
T2 construct: it is put last here; also called human MSLN-R3 protein; hMSLN-R3-his; not shown: His tag
T2 sequence (Q13421 495-606): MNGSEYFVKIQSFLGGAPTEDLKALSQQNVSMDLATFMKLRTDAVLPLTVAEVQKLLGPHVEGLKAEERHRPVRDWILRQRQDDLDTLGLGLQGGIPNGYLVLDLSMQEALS
As to the kind of experiment: ELISA on coated antigen, antibody 2 nM. In general terms: An ELISA detects its analyte on a solid surface through an enzyme-linked reagent.
B1 gave an OD450 of 1.71 OD.

Consider B2, for which the OD450 amounted to 2.75 OD.

B3 displayed an OD450 of 2.85 OD.

B4 returned an OD450 of 2.05 OD.

For the molecule B5, the OD450 is 2.43 OD.

The molecule B6 had an OD450 of 2.39 OD.

B7 gave an OD450 of 2.46 OD.

Consider B8, for which the OD450 amounted to 2.17 OD.

For the next assay, the target named is T1, human MSLN-R2-his protein. As to the kind of experiment: ELISA on coated antigen, antibody 20 nM.
Procedure: (§1) The plate was sealed with a plastic film and incubated at 4° C. overnight. The next day, the plate was washed twice with PBST, and a blocking buffer [PBS+2% (w/w) BSA] was added for blocking at room temperature for 2 h. The blocking buffer was discarded, and a chimeric antibody or negative control antibody serially diluted from 100 nM was added at 50 μL/well. After incubation at 37° C. for 2 h, the plate was washed 3 times with PBST. […] After incubation at 37° C. for 2 h, the plate was washed 5 times with PBST. A TMB substrate was added at 50 μL/well for incubation at room temperature for 5-10 min, and then a stop solution (1.0 N HCl) was added at 50 μL/well.
In turn, B1 gave an OD450 of 0.06 OD.

Consider B2, for which the OD450 was found to be 0.15 OD.

For B3, the OD450 worked out at 0.04 OD.

In the case of B4, the OD450 was 0.07 OD.

As to B5, the OD450 was determined as 0.12 OD.

B6 returned an OD450 of 0.05 OD.

As for B7, the OD450 was 0.06 OD.

For B8, the OD450 came to 0.06 OD.

The next assay addresses T2, human MSLN-R3-his protein. As to the kind of experiment: ELISA on coated antigen, antibody 20 nM.
Procedure: as §1
B1 came in with an OD450 of 2.42 OD.

With B2, the OD450 amounted to 2.84 OD.

Regarding B3, the OD450 amounted to 2.67 OD.

B4 displayed an OD450 of 2.43 OD.

With B5, the OD450 amounted to 2.46 OD.

The molecule B6 returned an OD450 of 2.34 OD.

B7 came in with an OD450 of 2.48 OD.

The molecule B8 gave an OD450 of 2.39 OD.

For the next assay, the target named is T1, human MSLN-R2-his protein. As to the kind of experiment: ELISA on coated antigen, antibody 0.2 nM.
Procedure: as §1
For B1, the OD450 came to 0.05 OD.

In turn, B2 had an OD450 of 0.06 OD.

In turn, B3 yielded an OD450 of 0.06 OD.

In turn, B4 had an OD450 of 0.05 OD.

For the molecule B5, the OD450 came out at 0.07 OD.

Take B6: the OD450 was 0.05 OD.

Molecule B7 yielded an OD450 of 0.05 OD.

For B8, the OD450 stood at 0.05 OD.

The target in the next assay is T1, human MSLN-R2-his protein. Nature of the assay: ELISA on coated antigen, antibody 200 nM.
Procedure: as §1
On to B1, for which the OD450 amounted to 0.08 OD.

For the molecule B2, the OD450 turned out to be 0.5 OD.

Take B3: the OD450 was 0.08 OD.

In turn, B4 came in with an OD450 of 0.09 OD.

Molecule B5 returned an OD450 of 0.15 OD.

Take B6: the OD450 came out at 0.1 OD.

The molecule B7 gave an OD450 of 0.1 OD.

With B8, the OD450 came out at 0.09 OD.

In a further assay the target is T2, human MSLN-R3-his protein. As to the kind of experiment: ELISA on coated antigen, antibody 0.2 nM.
As to B1, the OD450 came out at 0.5 OD.

B2 showed an OD450 of 2.66 OD.

B3 gave an OD450 of 2.7 OD.

With B4, the OD450 is 0.94 OD.

The molecule B5 showed an OD450 of 1.92 OD.

With B6, the OD450 worked out at 1.3 OD.

Molecule B7 showed an OD450 of 2.2 OD.

Molecule B8 yielded an OD450 of 0.8 OD.

The next assay concerns the target T2, human MSLN-R3-his protein. As to the kind of experiment: ELISA on coated antigen, antibody 200 nM.
Procedure: as §1
On to B1, for which the OD450 is 2.69 OD.

Molecule B2 yielded an OD450 of 2.71 OD.

B3 returned an OD450 of 2.84 OD.

B4 registered an OD450 of 2.69 OD.

B5: the OD450 came out at 3 OD.

Consider B6, for which the OD450 was found to be 2.63 OD.

In turn, B7 showed an OD450 of 2.91 OD.

The molecule B8 had an OD450 of 2.61 OD.

The next assay deals with T1, human MSLN-R2-his protein. Nature of the assay: ELISA on coated antigen, antibody 0.02 nM.
Procedure: as §1
The molecule B1 gave an OD450 of 0.05 OD.

In turn, B2 displayed an OD450 of 0.05 OD.

In turn, B3 registered an OD450 of 0.06 OD.

On to B4, for which the OD450 stood at 0.05 OD.

Consider B5, for which the OD450 is 0.07 OD.

On to B6, for which the OD450 is 0.05 OD.

With B7, the OD450 came out at 0.05 OD.

In turn, B8 displayed an OD450 of 0.05 OD.

A further assay deals with T2, human MSLN-R3-his protein. As to the kind of experiment: ELISA on coated antigen, antibody 0.02 nM.
Procedure: as §1
B1: the OD450 is 0.14 OD.

The molecule B2 had an OD450 of 1.7 OD.

For B3, the OD450 came out at 2.13 OD.

Molecule B4 displayed an OD450 of 0.26 OD.

For the molecule B5, the OD450 was 0.69 OD.

As for B6, the OD450 worked out at 0.35 OD.

Take B7: the OD450 was determined as 0.9 OD.

In turn, B8 had an OD450 of 0.17 OD.

A further assay addresses T1, human MSLN-R2-his protein. As to the kind of experiment: ELISA on coated antigen, antibody 0.002 nM.
Procedure: as §1
Take B1: the OD450 came out at 0.05 OD.

As to B2, the OD450 worked out at 0.05 OD.

B3 gave an OD450 of 0.06 OD.

B4 displayed an OD450 of 0.05 OD.

On to B5, for which the OD450 is 0.07 OD.

B6 yielded an OD450 of 0.05 OD.

Consider B7, for which the OD450 is 0.05 OD.

Molecule B8 had an OD450 of 0.05 OD.

The target in the next assay is T2, human MSLN-R3-his protein. Nature of the assay: ELISA on coated antigen, antibody 0.002 nM.
Procedure: as §1
On to B1, for which the OD450 is 0.06 OD.

On to B2, for which the OD450 worked out at 0.74 OD.

Molecule B3 yielded an OD450 of 1.04 OD.

In turn, B4 displayed an OD450 of 0.08 OD.

In turn, B5 yielded an OD450 of 0.12 OD.

In turn, B6 returned an OD450 of 0.14 OD.

Turning to B7, the OD450 is 0.27 OD.

With B8, the OD450 was 0.06 OD.

A further assay has as its target T1, human MSLN-R2-his protein. Nature of the assay: ELISA on coated antigen, antibody 0.0002 nM.
Procedure: as §1
Turning to B1, the OD450 came out at 0.05 OD.

The molecule B2 gave an OD450 of 0.05 OD.

As to B3, the OD450 was found to be 0.06 OD.

In the case of B4, the OD450 was found to be 0.05 OD.

For B5, the OD450 came out at 0.07 OD.

For B6, the OD450 turned out to be 0.05 OD.

The molecule B7 displayed an OD450 of 0.05 OD.

For the molecule B8, the OD450 is 0.05 OD.

The target of a further assay is T2, human MSLN-R3-his protein. As to the kind of experiment: ELISA on coated antigen, antibody 0.0002 nM.
Procedure: as §1
B1 gave an OD450 of 0.05 OD.

Turning to B2, the OD450 is 0.25 OD.

B3: the OD450 worked out at 0.23 OD.

Regarding B4, the OD450 was 0.05 OD.

Turning to B5, the OD450 came to 0.07 OD.

Molecule B6 registered an OD450 of 0.07 OD.

Turning to B7, the OD450 stood at 0.1 OD.

Regarding B8, the OD450 was found to be 0.05 OD.

A further assay concerns the target T1, human MSLN-R2-his protein. Nature of the assay: ELISA on coated antigen, no antibody (blank, column 'none').
Procedure: as §1
As for B1, the OD450 came to 0.07 OD.

Consider B2, for which the OD450 stood at 0.06 OD.

On to B3, for which the OD450 came out at 0.07 OD.

The molecule B4 had an OD450 of 0.06 OD.

B5 gave an OD450 of 0.08 OD.

For the molecule B6, the OD450 amounted to 0.07 OD.

As to B7, the OD450 was 0.06 OD.

Consider B8, for which the OD450 was determined as 0.07 OD.

The next assay deals with T2, human MSLN-R3-his protein. Described as above.
Procedure: as §1
B1: the OD450 was found to be 0.06 OD.

In turn, B2 registered an OD450 of 0.09 OD.

B3: the OD450 turned out to be 0.08 OD.

For the molecule B4, the OD450 is 0.06 OD.

With B5, the OD450 is 0.06 OD.

Regarding B6, the OD450 turned out to be 0.07 OD.

B7 returned an OD450 of 0.06 OD.

B8 gave an OD450 of 0.06 OD.
